Reference: US20150098939A1 (Sanofi, published 2015)

T1: human GPVI protein, soluble extracellular domain (D1 and D2) (human, UniProt Q9HCN6 21-267)
T1 construct: extracellular domain; also called hGPVI; human glycoprotein VI
T1 sequence (looked up): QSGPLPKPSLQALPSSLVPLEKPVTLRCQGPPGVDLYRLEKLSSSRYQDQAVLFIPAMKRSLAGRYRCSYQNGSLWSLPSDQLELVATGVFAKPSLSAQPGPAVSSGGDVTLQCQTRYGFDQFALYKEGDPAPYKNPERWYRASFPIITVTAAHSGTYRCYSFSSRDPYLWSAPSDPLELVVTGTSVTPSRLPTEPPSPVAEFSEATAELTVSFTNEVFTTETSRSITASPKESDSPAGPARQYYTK

T2: human GPVI on platelets (human, UniProt Q9HCN6 21-339)
T2 sequence (looked up): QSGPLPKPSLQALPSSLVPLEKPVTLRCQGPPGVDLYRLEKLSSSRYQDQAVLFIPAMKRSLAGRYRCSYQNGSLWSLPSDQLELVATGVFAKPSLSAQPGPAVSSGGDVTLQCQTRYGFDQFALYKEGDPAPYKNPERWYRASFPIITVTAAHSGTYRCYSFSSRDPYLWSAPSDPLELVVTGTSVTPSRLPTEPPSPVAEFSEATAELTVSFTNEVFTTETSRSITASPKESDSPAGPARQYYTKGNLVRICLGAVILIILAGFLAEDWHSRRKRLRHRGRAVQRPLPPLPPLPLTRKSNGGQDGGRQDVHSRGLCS


How the values were obtained:
[1] = target: T1, human GPVI protein, soluble …; test: SPR (Biacore 3000), Fab immobilised, human GPVI analyte
Method: Surface plasmon resonance technology on a Biacore 3000 (GE Healthcare) was used for detailed kinetic characterization of purified antibody fragments. A direct binding assay was used with the anti-GPVI Fab as the ligand and human GPVI as analyte. Typically, 500 RU of anti-GPVI Fab were immobilized on a research grade CM5 chip by amine reactive coupling, resulting in an Rmax of 200 RU for the bound GPVI molecule. Binding kinetics were measured over a concentration range typically between 0.8 to 208 nM in HBS-EP (10 mM HEPES pH 7.4, 150 mM NaCl, 3 mM EDTA, 0.005% Surfactant P20) at a flow rate of 30 μl/min. Chip surfaces were regenerated with 10 mM glycine pH 2.0. Kinetic parameters were analyzed and calculated in the BIAevaluation program package (version 4.1) using a flow cell without immobilized Fab as reference. A 1:1 binding model with mass transfer was applied for a global fit of the data for curves.

[2] = target: T1, human GPVI protein, soluble …; test: SPR (Biacore 3000), human GPVI immobilised, Fab analyte
Method: Surface plasmon resonance technology on a Biacore 3000 (GE Healthcare) was used for detailed kinetic characterisation of purified antibody fragments. An assay with immobilised human GPVI was used. Typically, 300 RU of GPVI were immobilised on a research grade CM5 chip by amine reactive coupling, resulting in an Rmax of 200 RU for the bound antibody fragment. Binding kinetics were measured over a concentration range between 3.2 to 112 nM in HBS-EP (10 mM HEPES pH 7.4, 150 mM NaCl, 3 mM EDTA, 0.005% Surfactant P20) at a flow rate of 30 μl/min. Chip surfaces were regenerated with 10 mM glycine pH2.0. Kinetic parameters were analysed and calculated in the BIAevaluation program package (version 4.1) using a flow cell without immobilised GPVI as reference. A 1:1 binding model with mass transfer was applied for a global fit of the data for curves corresponding to analyte concentrations from 3-56 nM of Fab fragment.
Note that the Biacore assay used to measure the data in this example is different in terms of immobilized binding partner (GPVI versus the mAb/Fab fragment) and this leads to the different Biacore affinities as reported in Table 5.

human GPVI on platelets = target: T2, human GPVI on platelets; test: cell-based or functional assay
hGPVI-hFc fusion protein [3] = target: T3, hGPVI-hFc fusion protein (human); test: DELFIA competition assay: Fab preincubated with GPVI-Fc (3 µg/ml), binding to collagen-coated plate, Test 1
T3 construct: also called GPVI-Fc; human GPVI-Fc fusion protein
Method: (§1) Collagen coated 384 well plates (Pierce) were blocked with 3% BSA for 2 h. Increasing concentrations of anti GPVI Fab fragments (0.3-20 μg/ml) were incubated with recombinant GPVI (Fusion protein of the extracellular domain of GPVI and Fc-Part of human IgG; 3 μg/ml). The GPVI-Fab mixture was added to collagen coated plates and incubated for 1 h at RT. 384 well plates were washed (DELFIA wash buffer, Perkin Elmer) five times and Eu-labelled anti-human IgG (100 ng/ml Perkin Elmer) was added. Following 1 h incubation at room temperature plates were washed again five times, enhancement solution (Perkin Elmer) was added and incubated for 10 min. Fluorescence was detected at 360/612 nm using a Tecan Ultra reader. Shown in Table 15 are examples of the inhibitory effect of recombinantly produced anti-GPVI Fab fragments on GPVI collagen binding.

hGPVI-hFc fusion protein [4] = target: T3, hGPVI-hFc fusion protein; test: DELFIA competition assay: Fab preincubated with GPVI-Fc (3 µg/ml), binding to collagen-coated plate, Test 2
Method: as §1

hGPVI-hFc fusion protein [5] = target: T3, hGPVI-hFc fusion protein; test: DELFIA competition assay: Fab preincubated with GPVI-Fc (3 µg/ml), binding to collagen-coated plate, Test 3
Method: as §1

Row | Kd [1] | koff [1] | kon [1] | Kd [2] | koff [2] | kon [2] | IC50 for inhibition of collagen induced platelet aggregation (human PRP), Test 1 (human GPVI on platelets) | IC50 for inhibition of collagen induced platelet aggregation (human PRP), Test 2 (human GPVI on platelets) | IC50 for inhibition of collagen induced platelet aggregation (human PRP), Test 3 (human GPVI on platelets) | IC50 (hGPVI-hFc fusion protein [3]) | IC50 (hGPVI-hFc fusion protein [4]) | IC50 (hGPVI-hFc fusion protein [5]) | Binder
1 | 0.06 nM | 2.2e-05 s⁻¹ | 348000 M⁻¹ s⁻¹ | 0.2 nM | 2e-05 s⁻¹ | 102000 M⁻¹ s⁻¹ | – | – | – | – | – | – | Fab 390-nG (recombinant non-glycosylated Fab of clone 390) (Fab, V domains shown, Chimeric Fab from HEK293: VL fused to human constant kappa (IGKC, Q502W4); also called ANTI-GPVI Fab 390-nG construct) VH: QVQLKESGPGLVAPSQSLSITCTVSGFSLTGYGVNWVRQPPGKGLEWLGMIWGDGSTDYQSTLKSRLSISKDNSKSQVFLKMNSLQTDDTARYYCARDLPMDYWGQGTSVTVSS VL: DIQMTQSPSSLSASLGGKVTITCKASQDINKYIAWYQHKPGKGPSLLIHYTSTLQPGIPSRFSGSGSGRDYSFSISNLEPEDIATYYCLQYANLLTFGGGTKLEIKR
2 | – | – | – | 0.2 nM | 3e-05 s⁻¹ | 132000 M⁻¹ s⁻¹ | 1.9 mg/L | 0.9 mg/L | 2.1 mg/L | 0.67 mg/L | 0.9 mg/L | 1.04 mg/L | humanized anti-GPVI Fab VL3/VH2 (Fab, V domains shown, Recombinant Fab: VH fused to CH1 of human IGHG1 (Q569F4), HC ends in DKTHT; VL fused to human constant kappa (Q502W4); also called VL3 with VH2) VH: QVQLQESGPGLVAPSQSLSITCTVSGFSLTGYGVNWVRQPPSRGLEWLGMIWGDGSTDYQSTLKSRLSISKDNSKSQVFLKMNSLTTDDTARYYCARDLPMDYWGQGTSVTVSS VL: DIQMTQSPSSLSASVGGRVTITCKASQDINKYIAWYQHKPGKGPSLLIHYTSTLQPGVPSRFSGSGSGRDYSFSISNLQPEDIATYYCLQYALLLTFGGGTKLEIKR
3 | – | – | – | 0.3 nM | 4e-05 s⁻¹ | 151000 M⁻¹ s⁻¹ | 1 mg/L | 2.3 mg/L | 2 mg/L | 0.72 mg/L | 0.72 mg/L | 1.02 mg/L | humanized anti-GPVI Fab VL3/VH4 (Fab, V domains shown, Recombinant Fab: VH fused to CH1 of human IGHG1 (Q569F4), HC ends in DKTHT; also called VL3 with VH4) VH: QVQLQESGPGLVAPSQSLSITCTVSGFSLTYYGVNWVRQPPSRGLEWLGMIWGDGSTDYQSTLKSRLSISKDNSKSQVFLKMNSLTTDDTARYYCARDLPMDYWGQGTSVTVSS VL: DIQMTQSPSSLSASVGGRVTITCKASQDINKYIAWYQHKPGKGPSLLIHYTSTLQPGVPSRFSGSGSGRDYSFSISNLQPEDIATYYCLQYALLLTFGGGTKLEIKR
